Assay results: patent US20180155451A1 (published 2018)

T1: FcγRIIa H (human, UniProt P12318 34-217)
T1 construct: extracellular domain; also called FcgRIIa H type; 2aH; not shown: His tag at the C terminus
T1 sequence (looked up): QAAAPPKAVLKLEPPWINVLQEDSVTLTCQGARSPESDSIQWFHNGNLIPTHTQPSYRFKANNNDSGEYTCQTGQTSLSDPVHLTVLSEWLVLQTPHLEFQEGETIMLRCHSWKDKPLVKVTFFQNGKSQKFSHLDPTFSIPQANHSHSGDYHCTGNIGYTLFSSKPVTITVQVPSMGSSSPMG

B1: GpH7-A5/GpH7-B3 variant I332_10E/GpL16-k0 (antibody, human IgG1, kappa)
heavy 1: not shown
heavy 2: not shown
light: DIVMTQSPLSLPVTPGEPASISCQASESLVHSNRNTYLHWYLQKPGQSPQLLIYKVSNRFSGVPDRFSGSGSGTDFTLKISRVEAEDVGVYYCSQNTHVPPTFGQGTKVEIERTVAAPSVFIFPPSDEQLKSGTASVVCLLNNFYPREAKVQWKVDNALQSGNSQESVTEQDSKDSTYSLSSTLTLSKADYEKHKVYACEVTHQGLSSPVTKSFNRGEC
notes: also called He Ab I332_10E
B2: GpH7-A5/GpH7-B3 variant I332_13S/GpL16-k0 (antibody, human IgG1, kappa)
heavy 1: not shown
heavy 2: not shown
light: B1 light
notes: also called He Ab I332_13S
B3: GpH7-A5/GpH7-B3 variant I332_14T/GpL16-k0 (antibody, human IgG1, kappa)
heavy 1: not shown
heavy 2: not shown
light: B1 light
notes: also called He Ab I332_14T
B4: GpH7-A5/GpH7-B3 variant I332_15Y/GpL16-k0 (antibody, human IgG1, kappa)
heavy 1: not shown
heavy 2: not shown
light: B1 light
notes: also called He Ab I332_15Y
B5: GpH7-A5/GpH7-B3 variant I332_16H/GpL16-k0 (antibody, human IgG1, kappa)
heavy 1: not shown
heavy 2: not shown
light: B1 light
notes: also called He Ab I332_16H
B6: GpH7-A5/GpH7-B3 variant I332_18N/GpL16-k0 (antibody, human IgG1, kappa)
heavy 1: not shown
heavy 2: not shown
light: B1 light
notes: also called He Ab I332_18N
B7: GpH7-A5/GpH7-B3 variant I332_19Q/GpL16-k0 (antibody, human IgG1, kappa)
heavy 1: not shown
heavy 2: not shown
light: B1 light
notes: also called He Ab I332_19Q
B8: GpH7-A5/GpH7-B3 variant I336_06M/GpL16-k0 (antibody, human IgG1, kappa)
heavy 1: not shown
heavy 2: not shown
light: B1 light
notes: also called He Ab I336_06M
B9: GpH7-A5/GpH7-B3 variant I336_08L/GpL16-k0 (antibody, human IgG1, kappa)
heavy 1: not shown
heavy 2: not shown
light: B1 light
notes: also called He Ab I336_08L
B10: GpH7-A5/GpH7-B3 variant K326_06M/GpL16-k0 (antibody, human IgG1, kappa)
heavy 1: not shown
heavy 2: not shown
light: B1 light
notes: also called He Ab K326_06M
B11: GpH7-A5/GpH7-B3 variant K326_09D/GpL16-k0 (antibody, human IgG1, kappa)
heavy 1: not shown
heavy 2: not shown
light: B1 light
notes: also called He Ab K326_09D
B12: GpH7-A5/GpH7-B3 variant K326_10E/GpL16-k0 (antibody, human IgG1, kappa)
heavy 1: not shown
heavy 2: not shown
light: B1 light
notes: also called He Ab K326_10E
B13: GpH7-A5/GpH7-B3 variant K326_14T/GpL16-k0 (antibody, human IgG1, kappa)
heavy 1: not shown
heavy 2: not shown
light: B1 light
notes: also called He Ab K326_14T
B14: GpH7-A5/GpH7-B3 variant K326_19Q/GpL16-k0 (antibody, human IgG1, kappa)
heavy 1: not shown
heavy 2: not shown
light: B1 light
notes: also called He Ab K326_19Q
B15: GpH7-A5/GpH7-B3 variant K334_03V/GpL16-k0 (antibody, human IgG1, kappa)
heavy 1: not shown
heavy 2: not shown
light: B1 light
notes: also called He Ab K334_03V
B16: GpH7-A5/GpH7-B3 variant K334_04F/GpL16-k0 (antibody, human IgG1, kappa)
heavy 1: not shown
heavy 2: not shown
light: B1 light
notes: also called He Ab K334_04F
B17: GpH7-A5/GpH7-B3 variant K334_07I/GpL16-k0 (antibody, human IgG1, kappa)
heavy 1: not shown
heavy 2: not shown
light: B1 light
notes: also called He Ab K334_07I
B18: GpH7-A5/GpH7-B3 variant K334_08L/GpL16-k0 (antibody, human IgG1, kappa)
heavy 1: not shown
heavy 2: not shown
light: B1 light
notes: also called He Ab K334_08L
B19: GpH7-A5/GpH7-B3 variant K334_14T/GpL16-k0 (antibody, human IgG1, kappa)
heavy 1: not shown
heavy 2: not shown
light: B1 light
notes: also called He Ab K334_14T
B20: GpH7-A5/GpH7-B3 variant K334_15Y/GpL16-k0 (antibody, human IgG1, kappa)
heavy 1: not shown
heavy 2: not shown
light: B1 light
notes: also called He Ab K334_15Y
B21: GpH7-A5/GpH7-B3 variant K334_16H/GpL16-k0 (antibody, human IgG1, kappa)
heavy 1: not shown
heavy 2: not shown
light: B1 light
notes: also called He Ab K334_16H
B22: GpH7-A5/GpH7-B3 variant L235_20W/GpL16-k0 (antibody, human IgG1, kappa)
heavy 1: not shown
heavy 2: not shown
light: B1 light
notes: also called He Ab L235_20W
B23: GpH7-A5/GpH7-B3 variant L328_02A/GpL16-k0 (antibody, human IgG1, kappa)
heavy 1: not shown
heavy 2: not shown
light: B1 light
notes: also called He Ab L328_02A
B24: GpH7-A5/GpH7-B3 variant L328_06M/GpL16-k0 (antibody, human IgG1, kappa)
heavy 1: not shown
heavy 2: not shown
light: B1 light
notes: also called He Ab L328_06M
B25: GpH7-A5/GpH7-B3 variant L328_13S/GpL16-k0 (antibody, human IgG1, kappa)
heavy 1: not shown
heavy 2: not shown
light: B1 light
notes: also called He Ab L328_13S
B26: GpH7-A5/GpH7-B3 variant L328_14T/GpL16-k0 (antibody, human IgG1, kappa)
heavy 1: not shown
heavy 2: not shown
light: B1 light
notes: also called He Ab L328_14T
B27: GpH7-A5/GpH7-B3 variant P271_01G/GpL16-k0 (antibody, human IgG1, kappa)
heavy 1: not shown
heavy 2: not shown
light: B1 light
notes: also called He Ab P271_01G
B28: GpH7-A5/GpH7-B3 variant Q295_05P/GpL16-k0 (antibody, human IgG1, kappa)
heavy 1: not shown
heavy 2: not shown
light: B1 light
notes: also called He Ab Q295_05P
B29: GpH7-A5/GpH7-B3 variant Q295_07I/GpL16-k0 (antibody, human IgG1, kappa)
heavy 1: not shown
heavy 2: not shown
light: B1 light
notes: also called He Ab Q295_07I
B30: GpH7-A5/GpH7-B3 variant S239_09D/GpL16-k0 (antibody, human IgG1, kappa)
heavy 1: not shown
heavy 2: not shown
light: B1 light
notes: also called He Ab S239_09D

Molecular target: T1, FcγRIIa H
Assay: SPR Biacore, relative binding

Row | Binder | He/Con_2aH
1 | B1 | 108 % of GpH7-A5/GpH7-B3/GpL16-k0 (=100)
2 | B2 | 110 % of GpH7-A5/GpH7-B3/GpL16-k0 (=100)
3 | B3 | 115 % of GpH7-A5/GpH7-B3/GpL16-k0 (=100)
4 | B4 | 115 % of GpH7-A5/GpH7-B3/GpL16-k0 (=100)
5 | B5 | 109 % of GpH7-A5/GpH7-B3/GpL16-k0 (=100)
6 | B6 | 110 % of GpH7-A5/GpH7-B3/GpL16-k0 (=100)
7 | B7 | 108 % of GpH7-A5/GpH7-B3/GpL16-k0 (=100)
8 | B8 | 106 % of GpH7-A5/GpH7-B3/GpL16-k0 (=100)
9 | B9 | 106 % of GpH7-A5/GpH7-B3/GpL16-k0 (=100)
10 | B10 | 103 % of GpH7-A5/GpH7-B3/GpL16-k0 (=100)
11 | B11 | 110 % of GpH7-A5/GpH7-B3/GpL16-k0 (=100)
12 | B12 | 102 % of GpH7-A5/GpH7-B3/GpL16-k0 (=100)
13 | B13 | 114 % of GpH7-A5/GpH7-B3/GpL16-k0 (=100)
14 | B14 | 101 % of GpH7-A5/GpH7-B3/GpL16-k0 (=100)
15 | B15 | 109 % of GpH7-A5/GpH7-B3/GpL16-k0 (=100)
16 | B16 | 106 % of GpH7-A5/GpH7-B3/GpL16-k0 (=100)
17 | B17 | 110 % of GpH7-A5/GpH7-B3/GpL16-k0 (=100)
18 | B18 | 104 % of GpH7-A5/GpH7-B3/GpL16-k0 (=100)
19 | B19 | 103 % of GpH7-A5/GpH7-B3/GpL16-k0 (=100)
20 | B20 | 106 % of GpH7-A5/GpH7-B3/GpL16-k0 (=100)
21 | B21 | 104 % of GpH7-A5/GpH7-B3/GpL16-k0 (=100)
22 | B22 | 118 % of GpH7-A5/GpH7-B3/GpL16-k0 (=100)
23 | B23 | 130 % of GpH7-A5/GpH7-B3/GpL16-k0 (=100)
24 | B24 | 104 % of GpH7-A5/GpH7-B3/GpL16-k0 (=100)
25 | B25 | 123 % of GpH7-A5/GpH7-B3/GpL16-k0 (=100)
26 | B26 | 116 % of GpH7-A5/GpH7-B3/GpL16-k0 (=100)
27 | B27 | 107 % of GpH7-A5/GpH7-B3/GpL16-k0 (=100)
28 | B28 | 103 % of GpH7-A5/GpH7-B3/GpL16-k0 (=100)
29 | B29 | 102 % of GpH7-A5/GpH7-B3/GpL16-k0 (=100)
30 | B30 | 114 % of GpH7-A5/GpH7-B3/GpL16-k0 (=100)
